Test results reported in patent US6017886A, “Use of NDF peptide as growth factor for sensory epithelium” (Amgen Inc., priority 1999, dated 2000).

B1: FGF-10: recombinant derived FGF-10 (protein, UniProt O15520 38-208, looked up)
Fibroblast growth factor 10: QALGQDMVSPEATNSSSSSFSSPSSAGRHVRSYNHLQGDVRWRKLFSFTKYFLKIEKNGKVSGTKKENCPYSILEITSVEIGVVAVKAINSNYYLAMNKKGKLYGSKEFNNDCKLKERIEENGYNTYASFNWQHNGRQMYVALNGKGAPRRGQKTRRKNTSAHFLPMVVHS
B2: CNTF: recombinant derived ciliary-derived neurotrophic factor (CNTF) (protein, UniProt P26441 1-200, looked up)
Ciliary neurotrophic factor: MAFTEHSPLTPHRRDLCSRSIWLARKIRSDLTALTESYVKHQGLNKNINLDSADGMPVASTDQWSELTEAERLQENLQAYRTFHVLLARLLEDQQVHFTPTEGDFHQAIHTLLLQVAAFAYQIEELMILLEYKIPRNEADGMPINVGDGGLFEKKLWGLKVLQELSQWTVRSIHDLRFISSHQTGIPARGSHYIANNKKM
B3: GDNF: recombinant derived glial-derived neurotrophic factor (GDNF) (protein, UniProt P39905 78-211, looked up)
Glial cell line-derived …: SPDKQMAVLPRRERNRQAAAANPENSRGKGRRGQRGKNRGCVLTAIHLNVTDLGLGYETKEELIFRYCSGSCDAAETTYDKILKNLSRNRRLVSDKVGQACCRPIAFDDDLSFLDDNLVYHILRKHSAKRCGCI
B4: KGF: recombinant derived keratinocyte growth factor (KGF) (protein, UniProt P21781 32-194, looked up)
Fibroblast growth factor 7: CNDMTPEQMATNVNCSSPERHTRSYDYMEGGDIRVRRLFCRTQWYLRIDKRGKVKGTQEMKNNYNIMEIRTVAVGIVAIKGVESEFYLAMNKEGKLYAKKECNEDCNFKELILENHYNTYASAKWTHNGGEMFVALNQKGIPVRGKKTKKEQKTAHFLPMAIT

system: utricular epithelium from seven day-old rats; test: BrdU incorporation (mitogenic activity) in primary culture of infant rat utricular sensory epithelium; type: cell-based; conditions: 50 ng/ml, seventy-two hours culture, infant (seven day-old) rat epithelium; control 50±7
Procedure: Sensory edithelial cells obtained from utricles in the inner ear of both seven day-old (infant) rats and six week-old (adult) rats were isolated with the use of thermolysin treatment; see Corwin et al., Abstracts of the Association for Research in Otolaryngology, Volume 18, page 87 (1995). All edges were trimmed away and the central portion of the epithelium was cut into quarters. Epithelial cells from the infant rats were cultured in DMEM/F12 with 10% FBS (Gibco BRL, Grand Island, N.Y.), and 3 micrograms per milliliter (μg/ml) of mitosis tracer BrdU (Aldrich Chemicals, Milwaukee, Wis.) for seventy-two hours, with or without 50 nanograms per milliliter (ng/ml) of the peptide of SEQ ID NO: 1 or 50 ng/ml of recombinant derived FGF-10, recombinant derived FGF-16, recombinant derived ciliary-derived neurotrophic factor (CNTF), recombinant derived neurotrophic growth facor (NGF), recombinant derived glial-derived neurotrophic factor (GDNF), recombinant derived keratinocyte growth factor (KGF), or a control (no growth factor present). The experiment was ended by fixing in 4% paraformaldehyde for one hour.
After several washes, the explants were immunostained for calretinin (a vestibular organ hair cell marker) using rabbit antiserum (SWant Swiss Antibodies, Belinzona, Switzerland), diluted 1:10,000. The secondary antibody was goat anti-rabbit immunoglobulin conjugated to biotin, diluted 1:1,000. Extensive washes were followed by incubating the explants with egg white avidin conjugated to Cy3, diluted 1:1,000. The explants were fixed again with paraformaldehyde as described above, then processed for BrdU immunostaining (a measure of cell proliferation) using standard immunostaining protocols. The mouse monoclonal ant-BrdU antibody was obtained from Caltag Laboratories of San Franscisco, Calif. The secondary antibody, a goat anti-mouse conjugated to FITC, was obtained from Antibodies, Inc. of Davis, Calif.

Row | Molecule | number of BrdU-positive nuclei per piece of epithelium
1 | B1 | 11±4
2 | B2 | 23±3
3 | B3 | 37±13
4 | B4 | 89±16
